Assay results published in the supplement of paper PMC10065799, “High-throughput profiling of sequence recognition by tyrosine kinases and SH2 domains using bacterial peptide display” (eLife, 2023).

Experiments:
AncSZ = test: phosphorylation enrichment, bacterial display (enrichment ratio); higher = better substrate or ligand; peptides without Tyr show the background
EPHB1 = EPHB1 (UniProt P54762); test: as above
EPHB2 = EPHB2 (UniProt P29323); test: as above
FGFR1 = FGFR1 (UniProt P11362); test: as above
Sequence of FGFR1 (P11362 whole entry, looked up): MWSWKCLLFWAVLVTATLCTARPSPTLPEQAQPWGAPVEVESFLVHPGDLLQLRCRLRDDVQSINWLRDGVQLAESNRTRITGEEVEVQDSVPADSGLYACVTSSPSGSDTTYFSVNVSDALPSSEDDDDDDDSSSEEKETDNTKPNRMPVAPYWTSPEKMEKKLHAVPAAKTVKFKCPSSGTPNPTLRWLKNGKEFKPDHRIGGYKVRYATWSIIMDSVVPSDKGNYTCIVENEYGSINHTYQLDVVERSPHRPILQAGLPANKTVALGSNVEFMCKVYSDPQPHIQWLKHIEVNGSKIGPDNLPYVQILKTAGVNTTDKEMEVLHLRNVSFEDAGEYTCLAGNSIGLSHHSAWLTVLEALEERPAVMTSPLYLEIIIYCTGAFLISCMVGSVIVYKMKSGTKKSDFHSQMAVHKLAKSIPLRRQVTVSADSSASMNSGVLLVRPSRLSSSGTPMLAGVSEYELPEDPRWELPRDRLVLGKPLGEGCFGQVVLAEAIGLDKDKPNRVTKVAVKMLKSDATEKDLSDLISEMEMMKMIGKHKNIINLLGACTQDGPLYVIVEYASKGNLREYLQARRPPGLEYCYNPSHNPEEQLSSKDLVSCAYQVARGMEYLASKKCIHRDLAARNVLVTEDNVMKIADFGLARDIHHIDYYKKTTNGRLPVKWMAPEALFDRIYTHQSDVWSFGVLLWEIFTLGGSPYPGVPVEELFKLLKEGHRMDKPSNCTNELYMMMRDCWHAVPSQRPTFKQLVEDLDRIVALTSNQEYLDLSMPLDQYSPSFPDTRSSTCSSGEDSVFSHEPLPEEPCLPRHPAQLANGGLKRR

FGFR3 = FGFR3 (UniProt P22607); test: as above
Sequence of FGFR3 (P22607 whole entry, looked up): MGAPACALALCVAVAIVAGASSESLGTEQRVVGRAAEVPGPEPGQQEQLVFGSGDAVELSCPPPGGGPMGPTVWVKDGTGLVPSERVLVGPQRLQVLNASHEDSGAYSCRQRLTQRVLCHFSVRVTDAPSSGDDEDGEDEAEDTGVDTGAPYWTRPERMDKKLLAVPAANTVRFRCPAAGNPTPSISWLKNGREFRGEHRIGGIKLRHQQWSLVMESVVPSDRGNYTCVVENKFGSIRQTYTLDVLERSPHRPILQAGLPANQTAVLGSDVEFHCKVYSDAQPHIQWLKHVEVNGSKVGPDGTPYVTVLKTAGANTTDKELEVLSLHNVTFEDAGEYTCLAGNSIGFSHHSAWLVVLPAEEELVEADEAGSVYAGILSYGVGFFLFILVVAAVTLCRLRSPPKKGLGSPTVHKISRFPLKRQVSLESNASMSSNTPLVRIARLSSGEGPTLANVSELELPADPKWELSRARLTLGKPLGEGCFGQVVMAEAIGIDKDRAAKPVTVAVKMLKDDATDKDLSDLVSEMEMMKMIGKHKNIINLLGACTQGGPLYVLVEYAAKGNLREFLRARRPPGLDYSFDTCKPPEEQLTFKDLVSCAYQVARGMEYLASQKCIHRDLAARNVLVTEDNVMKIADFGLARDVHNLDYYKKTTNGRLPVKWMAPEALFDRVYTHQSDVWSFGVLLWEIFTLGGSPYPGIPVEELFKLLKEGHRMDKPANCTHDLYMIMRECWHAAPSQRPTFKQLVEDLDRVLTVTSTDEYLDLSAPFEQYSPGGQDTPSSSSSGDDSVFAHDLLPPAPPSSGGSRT

Fer (mouse) = test: as above
Fes = Fes (UniProt P07332); test: as above
Fyn = Fyn (UniProt P06241); test: as above
Sequence of Fyn (P06241 whole entry, looked up): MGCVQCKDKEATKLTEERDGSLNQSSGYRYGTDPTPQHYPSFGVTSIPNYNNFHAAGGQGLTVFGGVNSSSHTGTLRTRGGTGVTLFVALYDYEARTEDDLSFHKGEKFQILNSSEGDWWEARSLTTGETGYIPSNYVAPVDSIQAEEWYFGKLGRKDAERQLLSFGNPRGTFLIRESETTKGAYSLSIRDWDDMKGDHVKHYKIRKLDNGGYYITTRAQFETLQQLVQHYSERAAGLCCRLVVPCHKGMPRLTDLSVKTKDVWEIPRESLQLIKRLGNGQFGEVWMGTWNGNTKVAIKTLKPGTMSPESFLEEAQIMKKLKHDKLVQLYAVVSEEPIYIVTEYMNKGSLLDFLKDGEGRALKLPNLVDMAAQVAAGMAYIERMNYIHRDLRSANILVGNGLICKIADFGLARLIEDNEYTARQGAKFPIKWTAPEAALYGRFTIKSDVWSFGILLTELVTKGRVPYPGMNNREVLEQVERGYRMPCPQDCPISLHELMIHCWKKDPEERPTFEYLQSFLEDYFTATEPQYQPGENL

Hck = Hck (UniProt P08631); test: as above
Sequence of Hck (P08631 whole entry, looked up): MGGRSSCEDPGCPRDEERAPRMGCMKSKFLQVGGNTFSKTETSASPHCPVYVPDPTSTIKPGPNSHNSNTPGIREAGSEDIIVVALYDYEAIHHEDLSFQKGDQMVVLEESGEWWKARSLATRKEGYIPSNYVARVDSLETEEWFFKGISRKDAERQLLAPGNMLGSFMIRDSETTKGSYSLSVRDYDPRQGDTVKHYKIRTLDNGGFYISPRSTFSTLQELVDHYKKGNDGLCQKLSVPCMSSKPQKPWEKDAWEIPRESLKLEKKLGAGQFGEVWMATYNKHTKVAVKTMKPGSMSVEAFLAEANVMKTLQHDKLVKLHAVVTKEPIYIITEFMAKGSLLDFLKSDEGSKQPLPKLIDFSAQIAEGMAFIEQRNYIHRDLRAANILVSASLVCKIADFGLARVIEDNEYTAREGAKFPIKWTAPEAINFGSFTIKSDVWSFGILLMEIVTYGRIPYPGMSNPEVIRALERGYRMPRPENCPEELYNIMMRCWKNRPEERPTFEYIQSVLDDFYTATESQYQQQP

Jak2 = Jak2 (UniProt O60674); test: as above
MERTK = MERTK (UniProt Q12866); test: as above
c-Abl (mouse) = test: as above
c-Src = test: as above
Grb2 SH2 = Grb2 SH2 (UniProt P62993); test: SH2 binding enrichment of the phosphorylated peptide, bacterial display (enrichment ratio); higher = better substrate or ligand; peptides without Tyr show the background
Sequence of Grb2 SH2 (P62993 whole entry, looked up): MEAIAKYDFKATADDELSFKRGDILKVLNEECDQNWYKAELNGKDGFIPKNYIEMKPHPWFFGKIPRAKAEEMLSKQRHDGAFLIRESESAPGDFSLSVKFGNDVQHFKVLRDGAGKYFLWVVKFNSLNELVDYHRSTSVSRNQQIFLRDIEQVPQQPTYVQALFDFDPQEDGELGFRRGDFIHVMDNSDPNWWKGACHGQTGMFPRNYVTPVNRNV

SHP2-C SH2 = test: as above
c-Src SH2 = test: as above
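Throughout, for SH2 binding enrichment of the phosphorylated peptide, bacterial display: peptide library displayed on the E. coli surface as eCPX fusions, selected cells deep-sequenced, score is each peptide's frequency after selection divided by its frequency in the input.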
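Throughout, for phosphorylation enrichment, bacterial display: 11-residue human phosphosite peptides and single-mutation variants displayed on the E. coli surface, counted by deep sequencing, each peptide's frequency after selection divided by its frequency in the unselected input library; frequency after pTyr selection over input frequency; kinase dosed for 20-30% of maximal phosphorylation in three min.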

Sequence of EPHB1 (P54762 whole entry, looked up): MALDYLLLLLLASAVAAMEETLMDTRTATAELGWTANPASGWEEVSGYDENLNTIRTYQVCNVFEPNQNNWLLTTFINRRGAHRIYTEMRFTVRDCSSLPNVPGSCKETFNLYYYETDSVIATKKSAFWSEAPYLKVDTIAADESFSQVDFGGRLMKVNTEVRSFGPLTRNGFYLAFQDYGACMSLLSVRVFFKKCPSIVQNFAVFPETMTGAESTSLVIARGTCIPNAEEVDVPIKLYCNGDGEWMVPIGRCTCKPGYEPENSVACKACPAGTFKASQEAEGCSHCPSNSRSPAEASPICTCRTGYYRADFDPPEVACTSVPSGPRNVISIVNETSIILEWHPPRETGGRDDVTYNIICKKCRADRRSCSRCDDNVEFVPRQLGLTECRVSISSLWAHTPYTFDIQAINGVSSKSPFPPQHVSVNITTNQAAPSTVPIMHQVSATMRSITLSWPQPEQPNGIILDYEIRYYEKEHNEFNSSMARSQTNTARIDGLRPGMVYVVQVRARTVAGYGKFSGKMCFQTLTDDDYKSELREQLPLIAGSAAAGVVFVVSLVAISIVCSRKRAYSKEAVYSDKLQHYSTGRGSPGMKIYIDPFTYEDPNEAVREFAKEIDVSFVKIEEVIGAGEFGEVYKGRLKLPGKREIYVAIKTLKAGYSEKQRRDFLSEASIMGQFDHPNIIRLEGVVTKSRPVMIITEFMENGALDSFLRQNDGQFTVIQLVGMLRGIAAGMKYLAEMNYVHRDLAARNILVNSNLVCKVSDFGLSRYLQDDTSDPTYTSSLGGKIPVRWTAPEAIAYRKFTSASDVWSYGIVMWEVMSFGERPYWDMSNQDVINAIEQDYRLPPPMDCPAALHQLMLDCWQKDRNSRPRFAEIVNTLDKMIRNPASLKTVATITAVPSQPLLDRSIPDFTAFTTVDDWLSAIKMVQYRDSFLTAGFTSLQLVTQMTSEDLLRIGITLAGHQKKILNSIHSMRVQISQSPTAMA
Sequence of EPHB2 (P29323 whole entry, looked up): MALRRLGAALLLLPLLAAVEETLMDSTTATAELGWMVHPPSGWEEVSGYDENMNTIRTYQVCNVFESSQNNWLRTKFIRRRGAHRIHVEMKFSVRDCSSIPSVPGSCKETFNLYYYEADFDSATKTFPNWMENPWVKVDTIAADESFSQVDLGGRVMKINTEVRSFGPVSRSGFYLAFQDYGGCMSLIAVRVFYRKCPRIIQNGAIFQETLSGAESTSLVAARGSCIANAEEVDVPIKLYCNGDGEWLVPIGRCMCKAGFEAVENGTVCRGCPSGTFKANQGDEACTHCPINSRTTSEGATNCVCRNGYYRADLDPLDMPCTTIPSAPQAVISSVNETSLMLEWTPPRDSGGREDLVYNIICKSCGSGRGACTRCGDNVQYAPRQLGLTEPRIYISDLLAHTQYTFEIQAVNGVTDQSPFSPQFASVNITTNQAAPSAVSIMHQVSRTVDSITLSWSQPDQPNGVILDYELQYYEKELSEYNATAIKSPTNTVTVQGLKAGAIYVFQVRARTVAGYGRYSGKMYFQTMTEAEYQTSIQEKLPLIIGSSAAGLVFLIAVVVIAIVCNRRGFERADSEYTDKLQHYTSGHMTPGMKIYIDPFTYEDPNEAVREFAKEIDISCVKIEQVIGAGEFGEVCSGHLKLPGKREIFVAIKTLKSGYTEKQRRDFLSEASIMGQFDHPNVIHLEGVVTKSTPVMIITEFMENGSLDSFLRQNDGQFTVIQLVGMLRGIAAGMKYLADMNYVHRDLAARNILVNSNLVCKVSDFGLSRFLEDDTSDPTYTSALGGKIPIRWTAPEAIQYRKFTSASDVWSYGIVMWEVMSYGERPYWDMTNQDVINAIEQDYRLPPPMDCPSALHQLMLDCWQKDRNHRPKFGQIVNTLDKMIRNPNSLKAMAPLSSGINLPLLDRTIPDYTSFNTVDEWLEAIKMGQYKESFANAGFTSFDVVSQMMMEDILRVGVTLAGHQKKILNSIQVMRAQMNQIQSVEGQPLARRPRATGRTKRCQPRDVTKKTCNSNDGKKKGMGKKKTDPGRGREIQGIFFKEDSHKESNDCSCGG

| Sequence | phosphorylation enrichment (AncSZ) | phosphorylation enrichment (EPHB1) | phosphorylation enrichment (EPHB2) | phosphorylation enrichment (FGFR1) | phosphorylation enrichment (FGFR3) | phosphorylation enrichment (Fer (mouse)) | phosphorylation enrichment (Fes) | phosphorylation enrichment (Fyn) | phosphorylation enrichment (Hck) | phosphorylation enrichment (Jak2) | phosphorylation enrichment (MERTK) | phosphorylation enrichment (c-Abl (mouse)) | phosphorylation enrichment (c-Src) | SH2 binding enrichment (Grb2 SH2) | SH2 binding enrichment (SHP2-C SH2) | SH2 binding enrichment (c-Src SH2) |
| --- | --- | --- | --- | --- | --- | --- | --- | --- | --- | --- | --- | --- | --- | --- | --- | --- |
| EEEPVYEAEPE [HCLS1_Y360] | 1.49 | 0.664 | 0.712 | 0.646 | 0.84 | 0.655 | 1.42 | 0.765 | 0.73 | 1.38 | 0.72 | 1.14 | 0.851 | 0.831 | 0.716 | 0.542 |
| AACQHYGVRTC [NR4A2_Y275] | 0.592 | 0.381 | 0.412 | 0.472 | 0.405 | 0.379 | 0.581 | 0.452 | 0.421 | 0.513 | 0.406 | 0.424 | 0.408 | 1 | 0.896 | 0.721 |
| ADLLDYIKALN [HPRT1_Y81] | 1.07 | 0.625 | 0.558 | 0.434 | 0.695 | 0.531 | 1.2 | 0.445 | 0.52 | 0.928 | 0.48 | 0.754 | 0.484 | 0.786 | 0.607 | 0.468 |
| VDLSKCITTIA [FAS_Y232_Y232C] | 0.975 | 0.626 | 0.533 | 0.461 | 0.641 | 0.413 | 1.01 | 0.402 | 0.431 | 0.697 | 0.364 | 0.681 | 0.308 | 0.742 | 0.529 | 0.374 |
| IGKAGYTDKMV [ENO1_Y236_V240M] | 0.523 | 0.445 | 0.352 | 0.377 | 0.367 | 0.3 | 0.545 | 0.33 | 0.376 | 0.52 | 0.372 | 0.407 | 0.336 | 0.82 | 1.47 | 0.513 |
| PLQKTYNHNVL [SLC4A1_Y553_Y555H] | 0.657 | 0.576 | 0.591 | 0.479 | 0.524 | 0.659 | 0.946 | 0.531 | 0.291 | 0.892 | 0.744 | 0.833 | 0.686 | 0.908 | 0.607 | 0.659 |
| IDDNEYAFLKA [HNF4A_Y286_YF] | 1.54 | 0.652 | 0.597 | 1.44 | 1.43 | 0.659 | 1.32 | 0.8 | 0.98 | 1.13 | 0.538 | 0.922 | 0.728 | 0.79 | 0.546 | 0.469 |
| RAMPVYEKAEH [TP63_Y231_K232E] | 0.664 | 0.654 | 0.834 | 0.493 | 0.545 | 1.79 | 0.598 | 0.867 | 1.02 | 1.03 | 0.453 | 0.576 | 0.776 | 1.07 | 0.574 | 2.1 |
| ENEGTYVCIAT [ADAMTSL3_Y1365] | 1.46 | 1.73 | 1.16 | 1.29 | 1.45 | 1.3 | 1.38 | 1.44 | 1.08 | 1.1 | 0.662 | 0.852 | 1.62 | 0.74 | 0.6 | 0.395 |
| WHHIFYNELRV [ACTG1_Y91_T89I] | 1.14 | 0.663 | 0.725 | 0.527 | 0.911 | 0.536 | 1.33 | 0.388 | 0.569 | 1.13 | 0.444 | 0.805 | 0.407 | 0.701 | 0.638 | 0.512 |
| LLREWYMIISR [HUWE1_Y4066] | 1.35 | 0.703 | 0.792 | 0.708 | 1.1 | 0.723 | 1.45 | 0.588 | 0.441 | 1.3 | 0.433 | 0.931 | 0.419 | 1.71 | 1.5 | 1.37 |
| IDGLEYLHSQG [STK11_Y166] | 0.737 | 0.578 | 0.499 | 0.445 | 0.637 | 0.426 | 0.906 | 0.619 | 0.413 | 0.796 | 0.368 | 0.574 | 0.417 | 0.779 | 0.57 | 0.478 |
| WRPFGYPCRRR [BCS1L_Y181_R183C] | 0.622 | 0.422 | 0.435 | 0.496 | 0.462 | 0.458 | 0.643 | 0.442 | 0.457 | 0.394 | 0.509 | 0.544 | 0.517 | 0.746 | 0.488 | 0.435 |
| EVKRLYGSVCD [TC2N_Y154] | 0.866 | 0.529 | 0.585 | 0.475 | 0.703 | 0.543 | 1.16 | 0.695 | 0.61 | 1.06 | 0.515 | 0.849 | 0.656 | 0.714 | 0.744 | 0.56 |
| ETAENYLGFTA [HSPA9_Y181_H184Y_YF] | 1.17 | 0.743 | 0.633 | 0.578 | 0.807 | 0.486 | 1.1 | 0.505 | 0.53 | 0.855 | 0.514 | 0.879 | 0.569 | 0.703 | 0.654 | 0.45 |
| RNDRVYQPLRD [CD3D_Y149_Q147R] | 0.604 | 0.629 | 0.432 | 0.41 | 0.616 | 0.475 | 0.785 | 0.675 | 5.18 | 0.509 | 0.786 | 0.689 | 1.55 | 0.845 | 0.727 | 0.943 |
| FIGCIYLFLTK [GARS1_Y414_R412C_YF] | 0.803 | 0.251 | 0.49 | 0.458 | 0.573 | 0.456 | 0.772 | 0.399 | 0.485 | 0.792 | 0.415 | 0.748 | 0.314 | 1.86 | 1.71 | 1.33 |
| SWKRRYFLLRA [APBB1IP_Y331] | 0.727 | 0.595 | 0.58 | 0.614 | 0.655 | 0.565 | 0.631 | 0.564 | 0.943 | 0.609 | 0.759 | 0.637 | 0.713 | 0.639 | 0.689 | 0.394 |
| QTLEAYIRWNK [SPAST_Y604] | 1.2 | 0.703 | 0.588 | 0.615 | 0.935 | 0.62 | 1.44 | 0.452 | 0.472 | 1.09 | 0.45 | 0.913 | 0.488 | 1.26 | 1.61 | 0.919 |
| RHLQEYQDLLN [GFAP_Y349] | 0.737 | 0.513 | 0.45 | 0.418 | 0.477 | 0.389 | 0.807 | 0.616 | 0.468 | 0.565 | 0.392 | 0.417 | 0.399 | 1.71 | 1.27 | 1.13 |
| TTPGPYRSIYF [MPG_Y71] | 0.595 | 0.268 | 0.278 | 0.44 | 0.515 | 0.54 | 1 | 0.641 | 0.662 | 0.433 | 0.422 | 0.547 | 1.27 | 1.48 | 6.08 | 2.11 |
| SRDTCYLVLAV [AMH_Y195_R194C] | 1.52 | 0.719 | 0.684 | 0.786 | 1.12 | 0.62 | 1.48 | 0.555 | 0.651 | 1.4 | 0.552 | 1.06 | 0.666 | 0.752 | 0.616 | 0.453 |
| PINEPYGDDMD [JUP_Y693] | 2.44 | 0.944 | 0.985 | 1.15 | 1.34 | 0.837 | 1.75 | 1.03 | 0.981 | 1.89 | 0.919 | 1.25 | 0.858 | 1.04 | 1.05 | 0.601 |
| AFSTVYKGLWI [EGFR_Y727_G724S] | 1.01 | 0.578 | 0.498 | 0.504 | 0.67 | 0.677 | 1.1 | 0.433 | 0.445 | 1.1 | 0.395 | 0.814 | 0.455 | 0.949 | 1.5 | 0.653 |
| ERIEFYELDKK [PMM2_Y145] | 1.05 | 0.652 | 0.554 | 0.395 | 0.76 | 0.742 | 1.09 | 0.484 | 0.588 | 0.892 | 0.393 | 0.771 | 0.49 | 0.728 | 0.626 | 0.708 |
| EPSVPYRGTVF [GLI3_Y104] | 0.566 | 0.447 | 0.567 | 0.447 | 0.478 | 0.424 | 0.698 | 0.545 | 0.441 | 0.783 | 0.487 | 0.534 | 0.46 | 0.803 | 0.711 | 0.491 |
| QEGPEYWDRET [HLA-A_Y83_Q86R] | 2.03 | 1.16 | 0.946 | 0.85 | 1.08 | 0.92 | 2.45 | 0.692 | 0.871 | 2.21 | 0.924 | 1.44 | 0.814 | 0.787 | 0.539 | 0.533 |
| RHPLDYLRQFP [NARS2_Y138_E137D_YF] | 0.719 | 0.458 | 0.583 | 0.429 | 0.449 | 0.349 | 0.74 | 0.511 | 0.498 | 0.78 | 0.56 | 0.753 | 0.609 | 1.05 | 0.746 | 0.519 |
| HCHEGYVLHGA [SVEP1_Y2921_I2922V] | 1.28 | 0.915 | 0.807 | 1.11 | 1.13 | 0.911 | 1.3 | 0.789 | 0.786 | 0.943 | 0.474 | 0.78 | 0.527 | 0.957 | 1.36 | 0.826 |
